Publication PMC4313621, “Hydrophobic mismatch sorts SNARE proteins into distinct membrane domains” (Nature Communications, 2015)
Ends that are not written are not given here.

Target: the molecule itself
Assay: FRET or BRET; donor- (Rhodamine Red) and acceptor- (Atto647N) labelled peptides reconstituted together in 100 nm LUVs of C14:1, C16:1, C18:1 or C20:1 PC, without or with 30 mol% cholesterol; protein-to-lipid 1:1000; 50 mM HEPES, 150 mM KCl, pH 7.4

B1: Syntaxin 4 TMD (residues 262-297; sx-4TM) (peptide, UniProt Q12846 262-297, looked up)
peptide: ALENQKKARKKKVLIAICVSITVVLLAVIIGVTVVG
modifications: also: N-terminus: Rhodamine Red or Atto647N
notes: syntaxin 4 transmembrane domain with juxtamembrane stretch, Homo sapiens, residues 262-297; also called syntaxin 4 truncation mutant; source: synthetic peptide (Fmoc solid phase synthesis)
B1: binds.
